Source: doi:10.1101/2024.02.25.581951

Target: T1, IRF3 (mouse (endogenous in mouse ESCs)), P70671
T1 chain: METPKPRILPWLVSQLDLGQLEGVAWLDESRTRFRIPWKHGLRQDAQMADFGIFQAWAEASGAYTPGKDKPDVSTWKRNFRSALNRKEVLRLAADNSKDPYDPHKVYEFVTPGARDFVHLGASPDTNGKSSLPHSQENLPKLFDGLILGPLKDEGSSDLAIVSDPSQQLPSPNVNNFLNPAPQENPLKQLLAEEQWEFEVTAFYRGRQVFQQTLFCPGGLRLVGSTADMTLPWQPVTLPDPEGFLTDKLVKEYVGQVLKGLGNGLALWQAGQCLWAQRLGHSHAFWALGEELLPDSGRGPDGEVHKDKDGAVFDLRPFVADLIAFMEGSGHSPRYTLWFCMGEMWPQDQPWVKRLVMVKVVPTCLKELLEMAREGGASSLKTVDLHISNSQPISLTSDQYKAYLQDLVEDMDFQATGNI
Test: native gel or EMSA
Conditions: remark: other sources report otherwise

B1: IRF3, P70671 1-419 (natural protein)
chain: METPKPRILPWLVSQLDLGQLEGVAWLDESRTRFRIPWKHGLRQDAQMADFGIFQAWAEASGAYTPGKDKPDVSTWKRNFRSALNRKEVLRLAADNSKDPYDPHKVYEFVTPGARDFVHLGASPDTNGKSSLPHSQENLPKLFDGLILGPLKDEGSSDLAIVSDPSQQLPSPNVNNFLNPAPQENPLKQLLAEEQWEFEVTAFYRGRQVFQQTLFCPGGLRLVGSTADMTLPWQPVTLPDPEGFLTDKLVKEYVGQVLKGLGNGLALWQAGQCLWAQRLGHSHAFWALGEELLPDSGRGPDGEVHKDKDGAVFDLRPFVADLIAFMEGSGHSPRYTLWFCMGEMWPQDQPWVKRLVMVKVVPTCLKELLEMAREGGASSLKTVDLHISNSQPISLTSDQYKAYLQDLVEDMDFQATGNI
  stoichiometry N: 2
